# Test results as given in the nanobody polyreactivity screen of Harvey et al. (2022).
# Assay: yeast display, Sf9 membrane polyspecificity reagent, FACS + sequencing; frameworks hold sequencing errors
# Method in brief: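 Galactose-induced (36–48 hours) yeast carrying a synthetic nanobody display library were exposed to 10% biotinylated, detergent-solubilized Sf9 membrane reagent at 4 °C for 1 hour. FACS followed streptavidin microbead enrichment, using low and high (top ~1%) gates for expression (anti-HA) and reagent binding (streptavidin). Colony PCR, MiSeq 2 × 250 sequencing and CDR-length filtering followed. Labels for polyreactivity reflect the gate of origin.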
row,Sequence,polyreactivity (PSR sort gate)
1,EDQLGESGGGLVQAGGSLRLSCAASGRTFYSYARGWSRQAPVKERELVAGINGGGSTYYADSVKGRFTISRDNAKNTVYLQMNSLKPEDSPVYYCAARRYDIRYYYVTYRPPKMYYWGQGTQVTVSS,high polyreactivity
2,QVQLVESGVGLVQAGGSLRLSCAASGRIFSRYTMGWYRQAPGKERELVAAIRYSGGLTYYADSVKGRFTISRDNAKNTVYLQMNSLKPEDTAVYYCATQVYLGYDKLYGYWGQGTQVTVSS,high polyreactivity
3,QVQLVESGGGLVQAGGSLRLSCAASGSIFVPYTMGWYRQAPGKERELVAAINSSDDSTFYADSVKGRFTISRDNAKNTVYLKMYSLKPEDTAVYYCNATGYARWYTGDYWGQGTQVTVSS,low polyreactivity
4,QVQLEESGGGLVQAGGSLRLTCAASGRILGYSAMGWYRQAPGKERELVAAISSGDSTNSADSVKGRFTISRDNAKITVYLQMNSLKPEDTAVYYCAAKGCIWNPYNYWGQGTQVTVSS,low polyreactivity
5,QVQLVESGGGLVQAGGSLRLSCAASGFTFRGYAMGWYRQAPGKERELVASITYRGGSTYYADSVKGRFTISRDNAKNTVYLQMNSLKPEDTAVSYCNAGFGGRRRQDAFIGTSIYDYWGQCTQVTVSS,low polyreactivity
6,QVQLVESGGGLVQAGASLSLSCAASGFTFEDYAMGWYRQAPGKERELVAAISSRGTSTYYADSVKGRFTISRDNAKNTVYLQMNSLKREDTAVYYCNIRGWYPYGYWGQGTQVTVSS,high polyreactivity
7,QVQLVESGGGLVQAGGSLRLSCAASGSISSSYAMGWYRQAPGKERELVAAIDGSDGTTYYADSVKGRYTISRDNAKNTVYLQMNSLKPEDTAFYYCAAEPLGYHAGATRYDYWGQGTQVTVSS,high polyreactivity
8,QVQLVESGGGLVQAGGILSLSCAASGRTFCYYTMGWYRQAPGKERELVAAISSGGRTNYADSVKGRFTNSRDNAKITVYLQMISLKPEDTAVYYGATSLYYKYVERDYWGHGTQVTVSS,high polyreactivity
9,QVQLVESGGGLVQAGGSLRLSCAASGSTFYDYAMGWYRQAPGKERELVASISISGGSTYADSVKRRFTISRDNAKNTVYLQMNSLKPEDTAVYYCNAKNYSWDDYDWVPDYEYWGQGTQVTVSS,low polyreactivity
10,QVQLVESGGGLVQAGGSLRLSCAASGSTFNRYAMGWYRQAPGKERELVAAITSTGGTNYADSVKGRFTISLDNAKNTVYLQMNSLKPEDTAVYYCAKRWLRWRSNYWGQGTQVTVSS,high polyreactivity
11,QVQLVESGGGLVQAGGSLRLSCAASGRIFTYYTMGWYRQAPGKERELVASITGGGGRTYYADSVKGRFTISRDNAKNTVYLQMNSLKPEDTAVYYCNARYPYPYWYTSYDYWGQGTQVTVSS,high polyreactivity
12,QVQLVESRGGLVQAGGSLRLSCPASGLIYVAYAMGWYRQAPGKERELVAAISRNGGSTYYADSVKGRFTISRDNAKNTVYLQMNSLKPEDTAVYYCAARYAYYTARYTQVKGLDYWGQGTQVTVSS,high polyreactivity
13,QGQLVESGGGLVQAGGSLRLTCAASGLTFWWYAMGWYRQAPGKERELVAAISSSGGSTYYADSVKGRFTISRDNAKNTVYLQMNSLKPEDTAVYYCAADGGFEYEYDYWGQGTQVTVTS,low polyreactivity
14,QVQLVESGGGLVQAGGSLRLSCAASGSIFYRYTMGWYRQAPGKERELVAGITFGAGTYYADSVKGRFTISRDNAKNTVYLQMNSLKPEDTAVYYCNAKHLPRHRDYWGQGTQVTVSS,low polyreactivity
15,QVQLVESGRGLVQAGGSLRLSCAASGYTFGYNAMGWYRQAPGKERELVATNSSGRTTTYADSVKGRFTISRDNAKNNVYLQMNSLKPEDNAGYYCATPVYRSSYEYDYWGQGTQVTVSS,low polyreactivity
16,QVQLVESGGGLVQAGGSLRLSCAASGYTFSFYAMGWYRQAPGKERELVATISWRGGSTYYADSVKGRFTISRDNAKNTVYLQMNSLKPEDTAVYYCNIVDKTGSKMDYWGQGTQVTVSS,high polyreactivity
17,QVQLVESGGGLVQAGGSLRLTCAASGSIFYFNTMGWYRQAPGKERELVAVISRRGGSTYYADSVKGRFTISRDNAKNTVYLQMNSLKPEDTAVYYCNAEVFDLWRSFLSPYEYWGQGTQVTVSS,low polyreactivity
18,QVQLVESGGGLVQAGGSLRLSCAASGYTSYVYAMGWYRQAPGKERELVAAISLRTASTYYADSVKGRFTISRDNAKNTVYLQMNSLKPEDTAVYYCARGRETYRYCYRLNYWGQGTQVTVSS,high polyreactivity
19,QGQLVESGGGLVQAGGSLRLSCPASGYIFWTNNMGWYRQSPGKERELVAAISYSGSSTYYADSVKGRFTISRDNAKNTVYLQMNSLKPEDTAVYYCAKKVRRYPTRYDSWGQGTQVTVSS,high polyreactivity
20,QVQLVESGGGLVQAGGSLLLSCAASGRTILTYALGWNRQAPGKERDLVAAISKRGGSTYYADSVKGRFTISRDNAKNTVYLQRNSLKPEDTAVYYCAADNVNHYGYWGQGTQVTVSS,high polyreactivity
21,QVQLEESGGGLVQAGGSLRLSCAASGSIFIRNAMGWYRQAPGKERELVAAISTIGGRTYYADSVKGRFTISRDNAKNTVYLQMNSQKPEDTAVYYCAAEQGTPSTNWFDYWGQGTQVTVSS,low polyreactivity
22,QVQLVESGGGLVHAGGSLRLSCAASRFIFYYYALGWYRQAPGKERELVAVITSGGSTNYADSVKGRFTISRDNAKNTVYLQMNSLKPEDTAVYYCAARSRRRDDSWGQGTQVTVSS,high polyreactivity

row,Sequence,polyreactivity (PSR sort gate)
1,QVQLVESGGGLVQAGGSLRLSCAASGITFSYNVMGWYRQAPGKERELVAAISDGGSTYYADSVKGRFTISRDNAKNTVYLQMNSLKPEDTAVYYCAADSPVDYLYALYLYVRDDYWGQGTQVTVSS,low polyreactivity
2,QVQLVESGGGLVQAGGSLRLSCAASGSIFDYNAMGWYRQAPGKERELVAAISSGGSTNYADSVKGRFTISRDNAKNTVYLQMNSLKPEDTAVYYCNTGLYWLGYWPDDYWGQGTQVTVSS,low polyreactivity
3,QVQLVESGGGLVQAGGSLRLSCAASGSTFITYAMGWYRQAPGKERELVAAIRVIGGRTYYADSVKGRFTISRDNAKNTVYLQMNSLKPEDTAVYYCAVTGRGWGYDYWGQGTQVTVSS,high polyreactivity
4,QVQLVESGGRLVQAGGSLRLSCAASGSTIYGYAMGWYRQAPGKERELVATIRSGGSTYYADSVKGRFTISRDNAKNTVYLQMNCLIPEDTAVYYCAAKRWRGYGGGYSWGQGTQVTVSS,high polyreactivity
5,QVQLVESGGGLVQAGGSLRLSCAASGRTFYNYAMGWYRQAPGKERELVAAITRGGSTYYADSVKGRFTISRDNAQNTVYLQMNSLKPEDTAVYYCNAKYIKGRDWGQGTQVTVSS,high polyreactivity
6,QVQLVESGGGLVQAGGSLRLSCAASGFIFGGNAMGWYRQAPGKVRELVAAITARSGSTYYADSVKGRFTISRDNAKNTVYLQMNSLKPEDTAVYYCAKGSLGSTRYYYWGQGTQVTVSS,low polyreactivity
7,QVQLVESGGGLVQAGGSLRLSCAASGSNFAINAMGWYRQAPGKERELVAAIRYSTGRTYYADSVKGRFTISRDNAKNTVYLQMNSLKPEDTAVYYCAALGFTKYGSRFDYWGQGTQVTVSS,high polyreactivity
8,QVQLVESGGGLVQAGGSLRLSCAASGFTTRSYAMGWYRQAPGKERELVAAISFSGGRTYYADSVKGRFTISRDNAKNTVYLQMNSLKPEDTAVYYCNARAYTRYSLLDYWGQGTQVTVSS,high polyreactivity
9,QVQLVESGGGLVQAGGSLRLSCAASGYTFGTYAMGWYRQAPGKERELVATISIGGITYYADSVKGRFTISRDNAKNTVYLQMNSLIPEDTAVYYCAKAVTDPTSRSDPTGDDYWGQGTQVTVSS,low polyreactivity
10,QVQLVESGGGLVQAGGSLRLSCAASGSIFEGNGMGWYRQAPGQERELVAAITFRSGSTYYADSVKGRFTISRDNAKNTVYLQMNSLKPEDTAVYYCAADEYYQGYAYDYWGQGTPVTVSS,low polyreactivity
11,QVQLVESGGGLVQAGGSLRLSCAASGRTFVGYVMGWYRQAPGKERDLVAAITSRGGRTYYADSLKGRFTISRDNAKNTVYLQMNSLNPEDTGVYYCYAAHGSRAFFGGYDYWGQGTEVTVSS,high polyreactivity
12,QVQLEEAGGGLVQAGGSLRLRCAASGRTFWYYAMGWYRQAPGKERELVAAITSGGSTNYADSVKGRFTISRDNEKNTVYLQMNSLKPEDTAVYYCAKLFRKRRSWDWYDYWGQGTQVTVSS,high polyreactivity
13,QVQLVESGGGLVQAGGRLRLSCAASGRIFAEYAMGWYRQAPGKVRELVAAISRRGGRPYYADSVKGRFTISRDNAKKPVYLQMNSLTPDDTAVYYCAADHGDPGGYDYWGQGTQVTVSS,high polyreactivity
14,QVQLVESGGGLVQAGGSLRLICAASGIIFSEYAMGWYRQAPGKERELVAVITSGGSTYYADSVKGRFTISRDNAKNTVYLQMNSLKPEDTAVYYCAARGYRYPMYWGQGTQVTVSS,high polyreactivity
15,QVQLVESGGGLVQAGGSLRLSCAASGRTFIGYAMGWYRQAPGKERELVAAISPGGSTKYADSVKGRFTISRDNAKNTVYLQMNSLKPEDTAVYYCAASYSGRQDRYPHYDYWGQGTQVTVSS,low polyreactivity
16,QVQLVESGGGLVQAGGSLRLSCAASGRTFGAYTMGWYRQAPGKERELFAAINWSGGDTYYADSVKGRFTISRDNAKNTVYLQMNSLKPEDTAVYYCNADFGFGYVSLLYEYWGQGTQVTVSS,low polyreactivity
17,QVQLVESGGGLVQAGGSLRLSCAASGIILYDYAMGWYRQAPGKERELVAGINRSGGITYYADSVKGRFTISRDNAKNTVYLQMNSLKPEDTAVYYCNAVFRYGATRSYRYDYWGQGTQVTVSS,high polyreactivity
18,QDQLVESGGGLVQAGGSLRLSCAASGGIFLGNAMGWYRQAPGKERELVAAISFSGGSTYYADSVKGRFTISRDNAKNTVYLQMNSLKPEDTAVYYCAAAWNRGKYNYYYWGQGTQVTVSS,high polyreactivity
19,QVQLVESGGGLVQAGGSLRLNCAASGSIFDDYAMGWYRQAPGKERELVAAINIRTGSTYYADSVKGRFTISRDNAKNTVYLQMHSLKPEDTEVYYCNRVVRGFVRHLDYWGQGTQVTVSS,low polyreactivity
20,QVQLVESGGGLVQAGGSLRLSCAASGFIFRPYAMGWYRQAPGKERELVAAITGGGSTYYADSVKGRFTISRDNAKNTVYLQMNSLKPEDTAVYYCAKDKGRAYFGPSPYDYWGQGTQVTVSS,low polyreactivity
21,QVHLVESGGGLVKAGGSLRISCAASGRTFVCYAMGCYRPAPGKERELVAAISSGGSTNYADSVKGRFTISRDNAKNTVYLLMICLKPEDTAVYYCNRRSYQRGWHWARGRYGFWGQGTQVTVSS,high polyreactivity
